These results are taken from patent US20030143656.

Data set [1] addresses T1, GST-SGK1 (lacking the N-terminal 60 amino acids), O00141.
T1 chain: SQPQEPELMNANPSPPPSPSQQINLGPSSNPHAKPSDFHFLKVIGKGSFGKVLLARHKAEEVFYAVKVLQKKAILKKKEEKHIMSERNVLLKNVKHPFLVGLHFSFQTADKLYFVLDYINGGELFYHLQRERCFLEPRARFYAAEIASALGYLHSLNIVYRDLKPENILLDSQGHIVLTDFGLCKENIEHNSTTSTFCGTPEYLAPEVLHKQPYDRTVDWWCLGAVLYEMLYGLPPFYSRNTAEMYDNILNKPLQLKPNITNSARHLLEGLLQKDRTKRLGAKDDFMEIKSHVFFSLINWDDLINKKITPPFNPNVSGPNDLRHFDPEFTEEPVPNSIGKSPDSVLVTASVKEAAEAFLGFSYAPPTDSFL

For data set [2], the target named is 412E-p70 S6K-T2 (His-tagged, insect cells), P23443.
Data set [3] has as its target T2, GST-?PH-PKBα[S473D], P31749.
T2 chain: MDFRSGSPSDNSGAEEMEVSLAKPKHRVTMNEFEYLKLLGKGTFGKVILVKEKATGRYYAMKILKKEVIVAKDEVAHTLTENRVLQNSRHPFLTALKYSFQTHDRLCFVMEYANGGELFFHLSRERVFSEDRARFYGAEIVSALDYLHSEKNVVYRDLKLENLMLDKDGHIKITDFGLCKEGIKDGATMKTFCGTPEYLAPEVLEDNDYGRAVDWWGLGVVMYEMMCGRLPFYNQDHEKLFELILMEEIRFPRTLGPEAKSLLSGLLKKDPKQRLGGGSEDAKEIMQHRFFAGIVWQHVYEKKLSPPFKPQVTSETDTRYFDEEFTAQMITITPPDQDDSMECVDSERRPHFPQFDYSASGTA

The next data set concerns the target T3, D978A-PIFtide.
T3 chain: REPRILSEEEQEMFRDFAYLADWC

In the next data set the target is T4, SGK1[F421A], O00141.
T4 chain: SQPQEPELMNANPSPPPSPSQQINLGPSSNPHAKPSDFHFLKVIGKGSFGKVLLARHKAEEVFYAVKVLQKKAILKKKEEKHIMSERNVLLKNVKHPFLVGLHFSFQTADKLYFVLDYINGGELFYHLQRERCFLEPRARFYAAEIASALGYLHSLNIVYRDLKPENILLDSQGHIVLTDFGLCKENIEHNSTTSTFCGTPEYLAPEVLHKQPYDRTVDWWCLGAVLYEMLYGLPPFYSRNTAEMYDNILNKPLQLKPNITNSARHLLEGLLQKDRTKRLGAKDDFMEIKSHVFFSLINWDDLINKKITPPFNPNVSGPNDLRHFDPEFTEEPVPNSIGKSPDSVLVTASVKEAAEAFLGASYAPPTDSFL

Data set [4] has as its target GST-SGK1[T422D] (lacking the N-terminal 60 amino acids), O00141.
The next data set concerns the target T5, GST-?PH-PKBα, P31749.
T5 chain: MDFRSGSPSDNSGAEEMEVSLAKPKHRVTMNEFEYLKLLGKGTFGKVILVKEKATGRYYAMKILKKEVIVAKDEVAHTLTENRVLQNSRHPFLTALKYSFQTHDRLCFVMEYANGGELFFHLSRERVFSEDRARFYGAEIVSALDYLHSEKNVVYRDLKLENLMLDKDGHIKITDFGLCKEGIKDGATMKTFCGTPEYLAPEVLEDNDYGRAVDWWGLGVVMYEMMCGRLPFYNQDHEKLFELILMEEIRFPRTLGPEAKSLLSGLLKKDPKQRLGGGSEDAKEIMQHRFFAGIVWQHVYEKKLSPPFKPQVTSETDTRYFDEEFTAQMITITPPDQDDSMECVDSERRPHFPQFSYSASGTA

Data set [5] addresses p70 S6K-T2 (His-tagged, insect cells), P23443.
Data set [6] has as its target GST-S6K1-T2[F411A], P23443.
The target in data set [7] is T6, GST-?PH-PKBα[F472A], P31749.
T6 chain: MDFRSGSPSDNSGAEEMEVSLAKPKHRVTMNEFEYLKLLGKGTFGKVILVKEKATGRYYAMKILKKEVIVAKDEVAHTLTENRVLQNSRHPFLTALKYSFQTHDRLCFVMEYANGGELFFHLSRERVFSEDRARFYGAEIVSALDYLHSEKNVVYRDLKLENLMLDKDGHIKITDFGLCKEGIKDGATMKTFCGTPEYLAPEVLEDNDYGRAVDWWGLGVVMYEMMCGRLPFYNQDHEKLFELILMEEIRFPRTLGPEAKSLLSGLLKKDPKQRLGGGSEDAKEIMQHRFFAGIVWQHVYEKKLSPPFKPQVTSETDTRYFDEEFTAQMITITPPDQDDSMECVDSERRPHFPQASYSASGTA

The next data set deals with T7, PIFtide.
T7 chain: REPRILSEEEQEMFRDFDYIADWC

The target in another data set is T8, T308tide.
T8 chain: KTFCGTPEYLAPEVRR

p70 S6K-T2 (His-tagged, insect cells), P23443, sequence (P23443 whole entry, looked up): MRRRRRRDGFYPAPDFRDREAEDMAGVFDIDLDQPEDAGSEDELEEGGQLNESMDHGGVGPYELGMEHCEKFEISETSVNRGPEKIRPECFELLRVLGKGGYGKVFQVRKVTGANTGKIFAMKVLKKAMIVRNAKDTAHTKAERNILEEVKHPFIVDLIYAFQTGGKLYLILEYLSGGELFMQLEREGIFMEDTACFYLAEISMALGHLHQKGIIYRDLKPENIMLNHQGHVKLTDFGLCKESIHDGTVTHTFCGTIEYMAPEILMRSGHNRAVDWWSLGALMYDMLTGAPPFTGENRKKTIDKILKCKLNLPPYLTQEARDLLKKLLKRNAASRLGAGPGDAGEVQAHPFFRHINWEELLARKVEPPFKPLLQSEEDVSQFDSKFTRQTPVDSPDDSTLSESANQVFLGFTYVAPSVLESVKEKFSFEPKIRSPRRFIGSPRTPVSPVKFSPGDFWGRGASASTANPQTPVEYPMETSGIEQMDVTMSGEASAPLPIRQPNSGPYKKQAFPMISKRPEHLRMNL
412E-p70 S6K-T2 (His-tagged, insect cells), P23443, sequence (P23443 whole entry, looked up): as above
GST-FL-PKB 473D, P31749, sequence (P31749 other isoform, or with tags, fused parts or gaps): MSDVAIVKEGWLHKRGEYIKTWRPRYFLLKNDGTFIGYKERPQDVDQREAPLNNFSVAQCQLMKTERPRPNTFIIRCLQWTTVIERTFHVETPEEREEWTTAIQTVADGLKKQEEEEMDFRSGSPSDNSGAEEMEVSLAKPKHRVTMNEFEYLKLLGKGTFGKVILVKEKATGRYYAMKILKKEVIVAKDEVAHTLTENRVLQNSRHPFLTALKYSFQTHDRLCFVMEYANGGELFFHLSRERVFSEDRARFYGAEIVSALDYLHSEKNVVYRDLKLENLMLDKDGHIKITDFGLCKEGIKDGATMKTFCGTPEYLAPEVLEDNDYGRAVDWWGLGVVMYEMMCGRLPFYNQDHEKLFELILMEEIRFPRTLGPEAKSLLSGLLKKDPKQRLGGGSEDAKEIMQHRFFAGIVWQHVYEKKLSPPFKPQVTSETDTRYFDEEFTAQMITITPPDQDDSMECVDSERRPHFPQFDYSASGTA
GST-S6K1-T2[F411A], P23443, sequence (P23443 1-421 F411A): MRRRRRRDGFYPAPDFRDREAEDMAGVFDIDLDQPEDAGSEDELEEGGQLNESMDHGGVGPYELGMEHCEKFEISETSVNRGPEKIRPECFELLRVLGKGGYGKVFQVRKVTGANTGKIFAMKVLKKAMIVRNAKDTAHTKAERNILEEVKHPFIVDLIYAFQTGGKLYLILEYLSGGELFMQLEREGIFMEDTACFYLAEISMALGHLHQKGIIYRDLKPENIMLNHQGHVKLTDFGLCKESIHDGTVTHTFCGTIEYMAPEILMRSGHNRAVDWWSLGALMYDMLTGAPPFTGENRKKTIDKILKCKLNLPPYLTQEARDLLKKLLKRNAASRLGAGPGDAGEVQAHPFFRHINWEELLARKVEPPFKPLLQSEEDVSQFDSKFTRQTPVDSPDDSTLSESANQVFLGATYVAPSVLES
PDKtide, sequence (chain, as listed by the source): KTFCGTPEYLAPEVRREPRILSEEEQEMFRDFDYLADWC
GST-PKBα[F472A], P31749, sequence (P31749 whole entry F472A): as the sequence (P31749 other isoform, or with tags, fused parts or gaps) above, with F472A, D473S counted along it

B1: GST-PDK1 (wild type) (protein)
chain: MARTTSQLYDAVPIQSSVVLCSCPSPSMVRTQTESSTPPGIPGGSRQGPAMDGTAAEPRPGAGSLQHAQPPPQPRKKRPEDFKFGKILGEGSFSTVVLARELATSREYAIKILEKRHIIKENKVPYVTRERDVMSRLDHPFFVKLYFTFQDDEKLYFGLSYAKNGELLKYIRKIGSFDETCTRFYTAEIVSALEYLHGKGIIHRDLKPENILLNEDMHIQITDFGTAKVLSPESKQARANSFVGTAQYVSPELLTEKSACKSSDLWALGCIIYQLVAGLPPFRAGNEYLIFQKIIKLEYDFPEKFFPKARDLVEKLLVLDATKRLGCEEMEGYGPLKAHPFFESVTWENLHQQTPPKLTAYLPAMSEDDEDCYGNYDNLLSQFGCMQVSSSSSSHSLSASDTGLPQRSGSNIEQYIHDLDSNSFELDLQFSEDEKRLLLEKQAGGNPWHQFVENNLILKMGPVDKRKGLFARRRQLLLTEGPHLYYVDPVNKVLKGEIPWSQELRPEAKNFKTFFVHTPNRTYYLMDPSGNAHKWCRKIQEVWRQRYQSHPDAAVQ
Turning to B1, the relative phosphorylation of the substrate by PDK1-wt, +PIFtide (relative, PKB[S473D]=100) in [1] is 3.8; in the data set with GST-FL-PKB 473D, P31749 it was 85.4; in [2], 7.4; in data set [3], 0.2; with GST-FL-PKB, P31749, 19.3; in [4] it was 9.6. Moreover, the relative phosphorylation of the substrate by PDK1-wt, +PIFtide (relative, PKB[S473D]=100) with GST-?PH-PKBα, P31749 came out at 0.25; in [5], 0.58. Moreover, the relative phosphorylation of the substrate by PDK1-wt, no PIFtide (relative, PKB[S473D]=100) in data set [1] came to 8; with GST-FL-PKB 473D, P31749, 100; in [2], 54; in data set [3], 0.9; with GST-FL-PKB, P31749, 28; in data set [4], 71. The relative phosphorylation of the substrate by PDK1-wt, no PIFtide (relative, PKB[S473D]=100) stood at 0.4 in the data set with GST-?PH-PKBα, P31749 and 10.4 in data set [5]. Further, the “concentration needed to obtain 50% activation of PDK1 (T308tide as substrate)” value in the data set with D978A-PIFtide came out at 1.1 µM for D978A-PIFtide; in the data set with PIFtide it was 0.14 µM for wt-PIFtide. Further, the “rate of phosphorylation by PDK1 compared to the wild type enzyme” value was “PKB[F472A] was phosphorylated at a similar rate to the wild type PKB” with GST-PKBα[F472A], P31749; “markedly reduced” with SGK1[F421A], O00141; “markedly reduced” in [6]; “markedly reduced” in data set [7]. Moreover, the “phosphorylation of p70 S6K at Thr412 by PDK1 (T412-P immunoblot)” value with PIFtide is “The 24 residue PIF peptide prevented PDK1 from phosphorylating the p70 S6K at Thr412”.

B2: GST-PDK1 L155E (protein)
chain: MARTTSQLYDAVPIQSSVVLCSCPSPSMVRTQTESSTPPGIPGGSRQGPAMDGTAAEPRPGAGSLQHAQPPPQPRKKRPEDFKFGKILGEGSFSTVVLARELATSREYAIKILEKRHIIKENKVPYVTRERDVMSRLDHPFFVKLYFTFQDDEKEYFGLSYAKNGELLKYIRKIGSFDETCTRFYTAEIVSALEYLHGKGIIHRDLKPENILLNEDMHIQITDFGTAKVLSPESKQARANSFVGTAQYVSPELLTEKSACKSSDLWALGCIIYQLVAGLPPFRAGNEYLIFQKIIKLEYDFPEKFFPKARDLVEKLLVLDATKRLGCEEMEGYGPLKAHPFFESVTWENLHQQTPPKLTAYLPAMSEDDEDCYGNYDNLLSQFGCMQVSSSSSSHSLSASDTGLPQRSGSNIEQYIHDLDSNSFELDLQFSEDEKRLLLEKQAGGNPWHQFVENNLILKMGPVDKRKGLFARRRQLLLTEGPHLYYVDPVNKVLKGEIPWSQELRPEAKNFKTFFVHTPNRTYYLMDPSGNAHKWCRKIQEVWRQRYQSHPDAAVQ
Regarding B2, the relative phosphorylation of the substrate by PDK1-L155E, +PIFtide (relative, PKB[S473D]=100) in data set [1] came to 2.4; in the data set with GST-FL-PKB 473D, P31749 it was 162; in data set [2], 0.108; in data set [3], 0.15; with GST-FL-PKB, P31749, 35; in data set [4], 3.4. The relative phosphorylation of the substrate by PDK1-L155E, +PIFtide (relative, PKB[S473D]=100) with GST-?PH-PKBα, P31749 is 0.25; in [5] it was 0.27. Further, the relative phosphorylation of the substrate by PDK1-L155E, no PIFtide (relative, PKB[S473D]=100) in data set [1] stood at 3.3; in the data set with GST-FL-PKB 473D, P31749, 178; in [2] it was 0.5; in [3] it was 0.18; with GST-FL-PKB, P31749, 35; in data set [4], 3.5. Moreover, the relative phosphorylation of the substrate by PDK1-L155E, no PIFtide (relative, PKB[S473D]=100) with GST-?PH-PKBα, P31749 was determined as 0.23; in [5] it was 0.6.

B3: His-PDK1 (protein)
chain: DGTAAEPRPGAGSLQHAQPPPQPRKKRPEDFKFGKILGEGSFSTVVLARELATSREYAIKILEKRHIIKENKVPYVTRERDVMSRLDHPFFVKLYFTFQDDEKLYFGLSYAKNGELLKYIRKIGSFDETCTRFYTAEIVSALEYLHGKGIIHRDLKPENILLNEDMHIQITDFGTAKVLSPESKQARANSFVGTAQYVSPELLTEKSACKSSDLWALGCIIYQLVAGLPPFRAGNEYLIFQKIIKLEYDFPEKFFPKARDLVEKLLVLDATKRLGCEEMEGYGPLKAHPFFESVTWENLHQQTPPKLTAYLPAMSEDDEDCYGNYDNLLSQFGCMQVSSSSSSHSLSASDTGLPQRSGSNIEQYIHDLDSNSFELDLQFSEDEKRLLLEKQAGGNPWHQFVENNLILKMGPVDKRKGLFARRRQLLLTEGPHLYYVDPVNKVLKGEIPWSQELRPEAKNFKTFFVHTPNRTYYLMDPSGNAHKWCRKIQEVWRQRYQSHPDAAVQ
With B3, the “Km of PDK1 for the peptide substrate” value with T308tide is given as “the Km was very high (>10 mM)”. The “rate of phosphorylation at 100 µM, against T308tide” value with PDKtide is given as “phosphorylated at a rate over 100-fold greater than that using T308tide”.
